The results in this text go back to patent US20050239141A1.

Test [1] deals with T1, rat CD5 antigen present on rat T cells (rat) (UniProt P51882).
T1 sequence (looked up): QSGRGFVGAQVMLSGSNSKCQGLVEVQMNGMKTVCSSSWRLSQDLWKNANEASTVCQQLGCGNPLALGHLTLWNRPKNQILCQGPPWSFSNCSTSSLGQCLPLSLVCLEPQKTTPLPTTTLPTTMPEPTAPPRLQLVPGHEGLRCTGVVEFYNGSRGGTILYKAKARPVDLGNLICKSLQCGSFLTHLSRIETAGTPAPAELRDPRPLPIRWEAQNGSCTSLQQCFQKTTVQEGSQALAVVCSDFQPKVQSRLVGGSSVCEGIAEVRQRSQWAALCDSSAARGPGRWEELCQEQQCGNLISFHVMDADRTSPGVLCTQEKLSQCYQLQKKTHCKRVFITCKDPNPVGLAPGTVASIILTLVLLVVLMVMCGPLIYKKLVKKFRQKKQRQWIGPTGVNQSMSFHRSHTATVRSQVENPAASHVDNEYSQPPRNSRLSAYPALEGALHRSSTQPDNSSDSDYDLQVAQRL
Put plainly: flow cytometry, lymph node T cells of a rat 3 h after 0.5 mg/kg i.v.

In test [2] the target is T1, rat CD5 antigen present on rat T cells (rat). The experiment in a line: flow cytometry, spleen T cells of a rat 3 h after 0.5 mg/kg i.v. On the technique in general: Flow cytometry measures light scatter and fluorescence of single cells or particles in a stream.
The target is the same in test [3]. The experiment in a line: flow cytometry, blood T cells of a rat 3 h after 0.5 mg/kg i.v.
The target is the same in test [4]. Put plainly: flow cytometry, blood T cells of a rat 3 h after 0.5 mg/kg i.v. (isotype matched negative control).
The target is the same in test [5]. The experiment in a line: flow cytometry, lymph node T cells of a rat 3 h after 0.5 mg/kg i.v. (isotype matched negative control).
For test [6] the target is unchanged. Put plainly: flow cytometry, spleen T cells of a rat 3 h after 0.5 mg/kg i.v. (isotype matched negative control).

Take OX19 MoAb (antibody): the % of CD4 cells also positive for mouse IgG1 was determined as 96.2% in test [1], 84.8% in test [2] and 96.2% in test [3]. The % of CD8 cells also positive for mouse IgG1 came to 96.8% in test [1], 73.6% in test [2] and 70.2% in test [3].

B1: MoAb H65 (antibody, V domains shown)
VH: QIQLVQSGPELKKPGETVKISCKASGYTFTNYGMNWVKQAPGKGLRWMGWINTHTGEPTYADDFKGRFAFSLETSASTAYLQINNLKNEDTATYFCTRRGYDWYFDVWGAGTTVTVSS
VL: DIKMTQSPSSMYASLGERVTITCKASQDINSYLSWFQQKPGKSPKTLIYRANRLVDGVPSRFSGSGSGQDYSLTISSLDYEDMGIYYCQQYDESPWTFGGGTKLEIK
With B1, the % of CD4 cells also positive for mouse IgG1 in test [4] amounted to 6.7%; in test [5], 4.2%; in test [6] it was 14.8%. The results for the % of CD8 cells also positive for mouse IgG1 in test [4], in test [5] and in test [6] were 5.7%, 6.5% and 20.6%, respectively.
